Series [1] deals with HIV-1RF. Briefly: XTT-tetrazolium anti-HIV assay, HIV-1RF in CEM-SS cells. The series is classed as cell-based. Conditions: HIV-1RF, T-tropic laboratory strain, CEM-SS cells, XTT, 6 days. As for the experimental part:
A 2,3-bis-[2-methoxy-4-nitro-5-sulfophenyl]-2H-tetrazolium-5-carboxanilide inner salt (XTT)-tetrazolium-based assay was used to determine the anti-HIV activity of CNID-1, -2 and -3 against a T-tropic laboratory strain (HIV-1RF) in T-lymphoblastic CEM-SS cells as described previously (Gulakowski et al., J. Virol. Methods, 33: 87-100 (1991)). CEM-SS cells were maintained in RPMI 1640 media without phenol red and supplemented with 10% fetal bovine serum (BioWhittaker), 2 mM L-glutamine (BioWhittaker), and 50 μg/ml gentamicin (BioWhittaker) (complete medium). Exponentially growing cells were washed and resuspended in complete medium, and a 50 μl aliquot containing 5×10^3 cells was added to individual wells of a 96-well round-bottom microtiter plate containing serial dilutions of the respective cnidarin protein in a volume of 100 μl of medium. Stock supernatants of HIV-1RF were diluted in complete medium to yield sufficient cytopathicity (80-90% cell kill in 6 days), and a 50 μl aliquot was added to appropriate wells. Plates were incubated for 6 days at 37° C. and then stained for cellular viability using XTT.
The HIV reverse transcriptase inhibitor 3′-Azido-3′-deoxythymidine (AZT) was used as a positive control. All assays were carried out in triplicate for all viruses and cells.
On the technique in general: Tetrazolium assays rely on reduction of a dye to a coloured formazan, in cell work by metabolically active cells.

In series [2] the test system is HIV-1Ba-L. Briefly: HIV-1 Ba-L replication in human primary macrophage cultures, p24 ELISA. The class given is cell-based. Conditions: M-tropic, human primary macrophages. The text has this: To test the anti-HIV activity of CNID1 against HIV primary isolates in fresh human cells, monocyte-tropic HIV-1 strain Ba-L was obtained from the NIAID AIDS Research and Reference Reagent Program (National Institutes of Health, Bethesda, Md.). The low passage HIV-1 pediatric isolate ROJO was derived as described previously (Buckheit et al., AIDS Res. Hum. Retroviruses, 10: 1497-1506 (1994)). Human peripheral blood mononuclear cells (PBMCs) and macrophages were isolated from hepatitis and HIV seronegative donors following Ficoll-Paque centrifugation as described elsewhere (Gartner & Popovic, Techniques in HIV Research, Aldovini, A. and Walker B., eds., pp. 59-63, Stockton Press, New York, 1990). Antiviral assays were carried out with 3-day-old phytohaemagglutinin/interleukin-2 stimulated PBMCs or 6-day-cultured monocyte/macrophages. […] HIV-1 replication in PBMC (ROJO) or monocyte macrophage (Ba-L) cultures were determined by measurement of reverse transcriptase activity (Buckheit et al., Antiviral Res., 21: 247-265 (1993)) in the supernatants or p24 antigen expression by ELISA (Coulter, Hialeah, Fla.), respectively. Cell viability by formazan dye reduction was determined in replicated cultures using the CellTiter reagent (Promega, Madison, Wis.). […]
In general terms: ELISA stands for enzyme-linked immunosorbent assay.

The subject of series [3] is HIV-1IIIB. Briefly: Viral attachment assay, cell-associated p24 antigen in HeLa CD4 LTR β-gal cells. The class given is cell-based. As for the experimental part:
Attachment and fusion assays were performed in HeLa-CD4-LTR-β-galactosidase cell lines as described previously (Gartner & Popovic, (1990), supra) with the following modifications. Following the interaction of HIV-1IIIIIB with HeLa CD4 LTR β-gal cells, viral attachment to HeLa CD4 LTR β-gal cells was detected as cell-associated p24 antigen following a 1 hour adsorption of virus and vigorous washing for removal of unbound virus. Fusion of HIV-1IIIIB with HeLa CD4 LTR β-gal cells was detected by chemiluminescence using a single-step lysis and detection method (Tropix Gal-screen, Bedford, Mass.) and results reported as EC50 values. Chicago Sky Blue, a polysulfonic acid dye inhibitor of HIV attachment and fusion, was used as a positive control for all assays (Clanton et al., J. Acquired Immune Defic. Syndr., 5: 771-781 (1992)).

The subject of series [4] is human PBMCs. In words: Toxicity in PHA-stimulated human PBMCs, XTT cell viability. Conditions: human PBMCs, XTT, 7 days. The method, then: The cultures were incubated for 7 days at 37° C./5% CO2. Efficacy of the compounds was evaluated by measuring the amount of reverse transcriptase in the culture supernatant and toxicity was evaluated using XTT to measure cell viability. AZT was evaluated in parallel as an assay control.

Some results are limits rather than exact numbers.

B1: CNID-1: HIV-inhibitory protein from soft coral Synthecium sp.; 172 amino acids, 18,122 Da, SEQ ID NO: 1 (protein)
chain: GRATLGQLKTSTIPPVTFDVPFDGANIPQDVRFTIATVNGGKGALYNAELGESAGHTIVLESDGDHPIPGTFDPKSGRGLDYLPRGLVLFSSHNYVGNMKMYTEPDSDITADFPPGTPFGVSSAITGEGSAFQLNTGIDHTGEFEIIPPNTKRNLAGVFDNEIRSVSPTGGK
The term EC50 denotes the midpoint of the concentration-response curve. Regarding B1, the EC50 in series [1] is 0.0845 nM; in series [2], 1.05 nM; in series [3] (read-out: Inhibition of Attachment EC50), > 55.2 nM. Besides, the “Inhibition of viral attachment to the cell” value in series [3] is “did not inhibit attachment”. For the same molecule, in series [4], the TC50 is >0.5 µg/mL.

(Values after US11034736B2, “Anti-viral cnidarins” (priority 2014, dated 2021).)
